Assay [1] concerns the target angiotensin converting enzyme (ACE) (human) (UniProt P12821). Briefly: indirect immunofluorescence flow cytometry, Nalm-6 cells, BB9 at 20 µg/mL; grade = proportion of positive cells. On the technique in general: A flow cytometer gives signals particle by particle.
For assay [2] the target is unchanged. Briefly: indirect immunofluorescence flow cytometry, K562 cells, BB9 at 20 µg/mL; grade = proportion of positive cells.
Assay [3] has the same target. As to the kind of experiment: indirect immunofluorescence flow cytometry, MCF-7 cells, BB9 at 20 µg/mL; grade = proportion of positive cells.
Assay [4] has the same target. As to the kind of experiment: indirect immunofluorescence flow cytometry, UT7 cells, BB9 at 20 µg/mL; grade = proportion of positive cells.
Assay [5] has the same target. Briefly: indirect immunofluorescence flow cytometry, Hi MEG cells, BB9 at 20 µg/mL; grade = proportion of positive cells.
For assay [6] the target is unchanged. Briefly: indirect immunofluorescence flow cytometry, RC2A cells, BB9 at 20 µg/mL; grade = proportion of positive cells.
Assay [7] shares this target. Briefly: indirect immunofluorescence flow cytometry, U937 cells, BB9 at 20 µg/mL; grade = proportion of positive cells.
For assay [8] the target is unchanged. As to the kind of experiment: indirect immunofluorescence flow cytometry, HL60 cells, BB9 at 20 µg/mL; grade = proportion of positive cells.
The target is the same in assay [9]. As to the kind of experiment: indirect immunofluorescence flow cytometry, KG-1 cells, BB9 at 20 µg/mL; grade = proportion of positive cells.
For assay [10] the target is unchanged. Briefly: indirect immunofluorescence flow cytometry, MG63 cells, BB9 at 20 µg/mL; grade = proportion of positive cells.
Assay [11] has the same target. Briefly: indirect immunofluorescence flow cytometry, HEL-DR cells, BB9 at 20 µg/mL; grade = proportion of positive cells.
Assay [12] has the same target. Briefly: indirect immunofluorescence flow cytometry, MEG-01 cells, BB9 at 20 µg/mL; grade = proportion of positive cells.
The target is the same in assay [13]. Briefly: indirect immunofluorescence flow cytometry, dermal fibroblasts, BB9 at 20 µg/mL; grade = proportion of positive cells.

UniProt P12821, sequence (P12821 30-1306): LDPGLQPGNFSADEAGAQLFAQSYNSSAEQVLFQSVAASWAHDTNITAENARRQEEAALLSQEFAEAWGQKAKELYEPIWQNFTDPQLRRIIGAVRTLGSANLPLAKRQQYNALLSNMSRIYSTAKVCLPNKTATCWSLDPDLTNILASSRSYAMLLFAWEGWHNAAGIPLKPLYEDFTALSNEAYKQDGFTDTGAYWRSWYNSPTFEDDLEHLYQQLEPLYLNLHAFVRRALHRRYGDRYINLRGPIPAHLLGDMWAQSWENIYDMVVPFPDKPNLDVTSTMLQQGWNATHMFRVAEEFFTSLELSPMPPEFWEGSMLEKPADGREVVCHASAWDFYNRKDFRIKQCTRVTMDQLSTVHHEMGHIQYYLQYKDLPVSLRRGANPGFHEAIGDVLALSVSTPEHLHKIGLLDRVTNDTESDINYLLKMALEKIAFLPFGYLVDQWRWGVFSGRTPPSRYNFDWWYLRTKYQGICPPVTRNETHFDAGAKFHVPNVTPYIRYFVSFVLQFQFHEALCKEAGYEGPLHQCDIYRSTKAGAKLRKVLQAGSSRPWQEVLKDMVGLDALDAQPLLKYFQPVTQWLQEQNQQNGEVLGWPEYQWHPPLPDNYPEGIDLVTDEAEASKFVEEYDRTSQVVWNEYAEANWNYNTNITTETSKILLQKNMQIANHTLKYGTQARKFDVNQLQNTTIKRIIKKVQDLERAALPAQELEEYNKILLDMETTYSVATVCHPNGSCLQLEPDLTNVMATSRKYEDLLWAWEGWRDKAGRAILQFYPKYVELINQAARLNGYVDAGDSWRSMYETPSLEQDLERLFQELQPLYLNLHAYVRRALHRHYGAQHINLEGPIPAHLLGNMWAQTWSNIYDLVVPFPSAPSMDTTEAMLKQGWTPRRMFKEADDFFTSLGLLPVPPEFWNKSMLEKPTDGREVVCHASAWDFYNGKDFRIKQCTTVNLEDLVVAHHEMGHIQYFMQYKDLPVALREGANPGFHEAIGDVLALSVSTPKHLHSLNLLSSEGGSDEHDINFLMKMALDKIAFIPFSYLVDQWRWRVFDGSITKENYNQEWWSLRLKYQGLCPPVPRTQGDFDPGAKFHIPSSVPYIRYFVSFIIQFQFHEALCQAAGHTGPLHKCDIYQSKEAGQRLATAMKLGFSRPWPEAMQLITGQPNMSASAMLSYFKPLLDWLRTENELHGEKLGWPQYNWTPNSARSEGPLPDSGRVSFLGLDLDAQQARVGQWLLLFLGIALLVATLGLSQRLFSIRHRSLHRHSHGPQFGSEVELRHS

For monoclonal antibody BB9, the proportion of BB9 positive cells lay within 5 to 35% in assay [1]; 35 to 80% in assay [2]; 5 to 35% in assay [3]; 35 to 80% in assay [4]; 5 to 35% in assay [5]; 5 to 35% in [6]. For the same substance, the proportion of BB9 positive cells is 5 to 35% in assay [7]; 35 to 80% in [8]; 5 to 35% in assay [9]; 35 to 80% in [10]; 35 to 80% in assay [11]; 35 to 80% in assay [12]. In assay [13], the proportion of BB9 positive cells lay within 80 to 100%.

For the origin of these results see patent US20060088890A1.
